Experimental data taken from PMC11255334, “Acetyl-CoA synthetase activity is enzymatically regulated by lysine acetylation using acetyl-CoA or acetyl-phosphate as donor molecule” (Nature Communications, 2024).

B1: Bacillus subtilis AMP-forming acetyl-CoA synthetase AcsA (enzyme, UniProt P39062 1-572, looked up)
chain: MNLKALPAIEGDHNLKNYEETYRHFDWAEAEKHFSWHETGKLNAAYEAIDRHAESFRKNKVALYYKDAKRDEKYTFKEMKEESNRAGNVLRRYGNVEKGDRVFIFMPRSPELYFIMLGAIKIGAIAGPLFEAFMEGAVKDRLENSEAKVVVTTPELLERIPVDKLPHLQHVFVVGGEAESGTNIINYDEAAKQESTRLDIEWMDKKDGFLLHYTSGSTGTPKGVLHVHEAMIQQYQTGKWVLDLKEEDIYWCTADPGWVTGTVYGIFAPWLNGATNVIVGGRFSPESWYGTIEQLGVNVWYSAPTAFRMLMGAGDEMAAKYDLTSLRHVLSVGEPLNPEVIRWGHKVFNKRIHDTWWMTETGSQLICNYPCMDIKPGSMGKPIPGVEAAIVDNQGNELPPYRMGNLAIKKGWPSMMHTIWNNPEKYESYFMPGGWYVSGDSAYMDEEGYFWFQGRVDDVIMTSGERVGPFEVESKLVEHPAIAEAGVIGKPDPVRGEIIKAFIALREGFEPSDKLKEEIRLFVKQGLAAHAAPREIEFKDKLPKTRSGKIMRRVLKAWELNLPAGDLSTMED
notes: AMP-forming acetyl-CoA synthetase AcsA, Bacillus subtilis, UniProt P39062; synthetic gene codon optimized for E. coli; also called AcsA wildtype; non-acetylated AcsA; source: E. coli BL21 (DE3), pET45b(+), purified (HisTrap FF, Ni2+)

Key:
AcsA•AcuA complex = target: T1, AcsA•AcuA complex (Bacillus subtilis, UniProt P39065); assay: lysine acetylation of AcsA K549, anti-AcK immunoblot and SEC; type: biochemical
T1 construct: both N-terminally His6-tagged, E. coli BL21 (DE3); AcuA 25,484 g/mol, monomer alone; apparent heterotetramer; AcsA K549 is the acetyl acceptor; with Acetyl-coenzyme A synthetase (AMP-forming)
T1 sequence (P39065 whole entry, one chain of several): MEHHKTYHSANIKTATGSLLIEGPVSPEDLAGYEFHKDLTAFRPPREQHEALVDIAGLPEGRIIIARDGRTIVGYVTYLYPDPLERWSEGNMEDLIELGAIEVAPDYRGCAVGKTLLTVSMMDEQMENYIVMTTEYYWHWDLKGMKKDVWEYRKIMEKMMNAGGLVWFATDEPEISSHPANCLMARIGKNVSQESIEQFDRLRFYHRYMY

[1] = target: the molecule itself; assay: SEC; analytical SEC of the single proteins, Superdex 200 10/300 GL, 50 mM Tris/HCl pH 8, 50 mM KCl, 2 mM β-mercaptoethanol; 100 µl of 50–100 µM injected; MW from a calibration curve
[2] = target: the molecule itself; assay: SEC; analytical SEC of the preformed equimolar AcsA•AcuA complex pretreated with a tenfold molar excess of acetyl-CoA (excess also varied), 30 min at room temperature; fractions checked by anti-AcK immunoblot and Ponceau S
[3] = target: B1; assay: SEC; analytical SEC of equimolar AcsA and AcuA (wild type or mutants), incubated 30 min at room temperature, Superdex 200 10/300 GL, 50 mM Tris/HCl pH 8, 50 mM KCl, 2 mM β-mercaptoethanol; 100 µl of 50–100 µM; without ligand or with a tenfold molar excess of CoA or AcP alone; conditions: both partners purified

CC(=O)OP(=O)(O)O [AcP]
lysine acetylation of AcsA K549, anti-AcK immunoblot and SEC (AcsA•AcuA complex; intrinsic phosphotransacetylase activity, AcP with CoA as needed co-substrate, 37 °C): upon addition of CoA and AcP, AcsA was strongly acetylated

CC(=O)SCCNC(=O)CCNC(=O)[C@H](O)C(C)(C)COP(=O)(O)OP(=O)(O)OC[C@H]1O[C@@H](n2cnc3c(N)ncnc32)[C@H](O)[C@@H]1OP(=O)(O)O [acetyl-CoA]
lysine acetylation of AcsA K549, anti-AcK immunoblot and SEC (AcsA•AcuA complex; 200 µM acetyl-CoA, AcuA 5 µM, AcsA 20 µM, acetyltransferase activity): addition of acetyl-CoA to AcsA and AcuA resulted in a strong acetylation of AcsA

B1
stoichiometry N [1]: 2

B2: K549-acetylated Bacillus subtilis AcsA (enzyme, UniProt P39062 1-572, looked up)
chain: MNLKALPAIEGDHNLKNYEETYRHFDWAEAEKHFSWHETGKLNAAYEAIDRHAESFRKNKVALYYKDAKRDEKYTFKEMKEESNRAGNVLRRYGNVEKGDRVFIFMPRSPELYFIMLGAIKIGAIAGPLFEAFMEGAVKDRLENSEAKVVVTTPELLERIPVDKLPHLQHVFVVGGEAESGTNIINYDEAAKQESTRLDIEWMDKKDGFLLHYTSGSTGTPKGVLHVHEAMIQQYQTGKWVLDLKEEDIYWCTADPGWVTGTVYGIFAPWLNGATNVIVGGRFSPESWYGTIEQLGVNVWYSAPTAFRMLMGAGDEMAAKYDLTSLRHVLSVGEPLNPEVIRWGHKVFNKRIHDTWWMTETGSQLICNYPCMDIKPGSMGKPIPGVEAAIVDNQGNELPPYRMGNLAIKKGWPSMMHTIWNNPEKYESYFMPGGWYVSGDSAYMDEEGYFWFQGRVDDVIMTSGERVGPFEVESKLVEHPAIAEAGVIGKPDPVRGEIIKAFIALREGFEPSDKLKEEIRLFVKQGLAAHAAPREIEFKDKLPKTRSGKIMRRVLKAWELNLPAGDLSTMED
modifications: acetyl-lysine at K549
notes: AMP-forming acetyl-CoA synthetase AcsA, Bacillus subtilis, UniProt P39062, acetylated at K549 by AcuA; Formed in the sample from m1 and m2 before the SEC run; K549 is the major acceptor site by the K549R control; also called AcsA AcK549; acetylated AcsA; source: E. coli BL21 (DE3), purified; acetylated in vitro by AcuA with acetyl-CoA, or with AcP and CoA
stoichiometry N [2]: 2

B3: AcuA W140A (enzyme, Bacillus subtilis, UniProt P39065 1-210, looked up)
chain: MEHHKTYHSANIKTATGSLLIEGPVSPEDLAGYEFHKDLTAFRPPREQHEALVDIAGLPEGRIIIARDGRTIVGYVTYLYPDPLERWSEGNMEDLIELGAIEVAPDYRGCAVGKTLLTVSMMDEQMENYIVMTTEYYWHADLKGMKKDVWEYRKIMEKMMNAGGLVWFATDEPEISSHPANCLMARIGKNVSQESIEQFDRLRFYHRYMY
notes: AcuA, Bacillus subtilis, UniProt P39065, with W140A
binding result [3]: binds

B4: AcuA W140F (enzyme, Bacillus subtilis, UniProt P39065 1-210, looked up)
chain: MEHHKTYHSANIKTATGSLLIEGPVSPEDLAGYEFHKDLTAFRPPREQHEALVDIAGLPEGRIIIARDGRTIVGYVTYLYPDPLERWSEGNMEDLIELGAIEVAPDYRGCAVGKTLLTVSMMDEQMENYIVMTTEYYWHFDLKGMKKDVWEYRKIMEKMMNAGGLVWFATDEPEISSHPANCLMARIGKNVSQESIEQFDRLRFYHRYMY
notes: AcuA, Bacillus subtilis, UniProt P39065, with W140F
binding result [3]: binds

B5: AcuA E97Q/E135Q (enzyme, Bacillus subtilis, UniProt P39065 1-210, looked up)
chain: MEHHKTYHSANIKTATGSLLIEGPVSPEDLAGYEFHKDLTAFRPPREQHEALVDIAGLPEGRIIIARDGRTIVGYVTYLYPDPLERWSEGNMEDLIQLGAIEVAPDYRGCAVGKTLLTVSMMDEQMENYIVMTTQYYWHWDLKGMKKDVWEYRKIMEKMMNAGGLVWFATDEPEISSHPANCLMARIGKNVSQESIEQFDRLRFYHRYMY
notes: AcuA, Bacillus subtilis, UniProt P39065, with E97Q and E135Q; also called double mutant AcuA E97Q/E135Q
binding result [3]: binds
